Results as given in publication PMC8825819, “Structure of Escherichia coli O157:H7 bacteriophage CBA120 tailspike protein 4 baseplate anchor and tailspike assembly domains (TSP4-N)” (Scientific Reports, 2022).

Assays:
[1] = target: TSP4-N253 (AD-XD1-XD2 of TSP4, lacking XD3) (bacteriophage CBA120) (UniProt G3M192); experiment: AUC; sedimentation velocity of single proteins and of mixtures, PBS pH 7.4, 20 °C, absorbance at 280 nm, 30-50 krpm; c(s) by SEDFIT; Kd and koff by Lamm equation modelling with a two-site heterogeneous association model A + B + B = AB + B = ABB (A: TSP4-N335 hexamer, B: partner TSP trimer; two symmetric sites, no cooperativity)
[2] = target: TSP4-N490 (AD-XD1-XD2-XD3 region followed by the D1-D2 head region of TSP4) (bacteriophage CBA120) (UniProt G3M192); experiment: as above
[3] = target: TSP4-N335, the 335 N-terminal residues of tailspike protein 4 of bacteriophage CBA120 (AD-XD1-XD2-XD3) (bacteriophage CBA120) (UniProt G3M192); experiment: as above
[4] = target: TSP4 devoid of the AD-XD1 domains, residues 185-1036 (bacteriophage CBA120) (UniProt G3M192); experiment: as above
[5] = target: TSP4-N181 (AD-XD1 of TSP4) (bacteriophage CBA120) (UniProt G3M192); experiment: as above
[6] = target: the molecule itself; experiment: as above
[7] = target: TSP4-N335, the 335 N-terminal residues of tailspike protein 4 of bacteriophage CBA120 (AD-XD1-XD2-XD3) (bacteriophage CBA120) (UniProt G3M192); experiment: as above; remark: listed apart in the source
[8] = target: TSP4-N335, the 335 N-terminal residues of tailspike protein 4 of bacteriophage CBA120 (AD-XD1-XD2-XD3) (bacteriophage CBA120) (UniProt G3M192); experiment: AUC; sedimentation equilibrium, PBS, 20 °C, 3 or 4 speeds (3000-12,000 rpm); global fit with SEDPHAT; for mixtures the two-site model A + B + B = AB + B = ABB
[9] = target: the molecule itself; experiment: AUC; sedimentation velocity in 50 mM TRIS pH 8.0 or HEPES pH 7.3, 150 mM NaCl, 0.1-0.5 mM Zn2+ (100 μM ZnCl2 in the legend)
[10] = target: TSP4-N335, the 335 N-terminal residues of tailspike protein 4 of bacteriophage CBA120 (AD-XD1-XD2-XD3) (bacteriophage CBA120) (UniProt G3M192); experiment: as above
[11] = target: TSP4-N490 (AD-XD1-XD2-XD3 region followed by the D1-D2 head region of TSP4) (bacteriophage CBA120) (UniProt G3M192); experiment: AUC; sedimentation velocity of single proteins and of mixtures, PBS pH 7.4, 20 °C, absorbance at 280 nm, 30-50 krpm; c(s) by SEDFIT; Kd and koff by Lamm equation modelling with a two-site heterogeneous association model A + B + B = AB + B = ABB (A: TSP4-N335 hexamer, B: partner TSP trimer; two symmetric sites, no cooperativity); remark: listed apart in the source
[12] = target: TSP4-N181 (AD-XD1 of TSP4) (bacteriophage CBA120) (UniProt G3M192); experiment: as above; remark: listed apart in the source

## TSP4-N253 (AD-XD1-XD2 of TSP4, lacking XD3) (from UniProt G3M192 1-253) (domain or fragment)
[1]
  stoichiometry N: 6

## TSP4-N490 (AD-XD1-XD2-XD3 region followed by the D1-D2 head region of TSP4) (from UniProt G3M192 1-490) (domain or fragment)
[2]
  stoichiometry N: 6

## TSP4-N335, the 335 N-terminal residues of tailspike protein 4 of bacteriophage CBA120 (AD-XD1-XD2-XD3) (from UniProt G3M192 1-335) (domain or fragment)
[3]; mixed monomer and hexamer sample
  stoichiometry N: 3
[3]; purified single-species sample
  stoichiometry N: 6

## TSP4 devoid of the AD-XD1 domains, residues 185-1036 (from UniProt G3M192 185-1036) (domain or fragment)
[4]
  stoichiometry N: 3

## TSP4-N181 (AD-XD1 of TSP4) (from UniProt G3M192 1-181) (domain or fragment)
[5]
  stoichiometry N: 6

B1: Tailspike protein 1 of bacteriophage CBA120 (natural protein)
chain: MNEMFSQGGKGSTGILTNKQAVARHFGVKQSEVVYFSVGVDLGGYKVIYDKETQRAYSLPVGIASGTTAVSLSTAAVLVHSAGSVDLGSLAVSREEYVTLPGSFDSGSTLNVKNELLTYTDGKYRWDGILPKTVAPGSTPASTGGVGLGAWISVGDASLRTQLANGDGSLIGIHPQGTLNNVLTVRTPEQYNAVGDGIADDTSKLKEMLSDINNVPETLPDAAAVNSYMEQVAVKIDLTKLYRFTETLYIPPGVSIEIPTSNFFTRECKQGLFYDPVDKNTAAISLMVYRKQPDGSYKLNKDVDYYPTGLDIDNGDAITCARKIDINNLNLITAPGVKVGVKWIGGAGCTTKGLSIGENTGSDITTARLPRVGLLQSASWGSIHENLRILYKTQGAVFIDSNGGAAVNNAYISRLGNTNGELEQAVYKPAGFTEVGDVAVTQFAGSEVKFNSPIIEQASFDFVHAGRDTDSYGLFMVDKPHIESSGGKKKHSFYLINTSSNVTLSGVGLSGQDPDLDSMYFLKNCPETARNVVRGQMPISGVKLVRGTGNYPTLVLDCTNMGSQFQFGEVGDIFYIKDVVGVKADTLYIDPVNGNNYNWGTNGTKPIRELTNIAKICQLFRCKSVYLNAGESVITSNTELPMVVFEGPGSLKANSGSSFLIKAGGTLSLIGLSGISTDGGHMFRVSTVEKVNIHTNCSVNAGAAYVVLSEVQGNIEYRQLFYSVNCSKYIGATAGQTIAGIMVKTATRPTGIDAAPVDGNVSLTYKIIES
notes: Homotrimer by SV (MWcalc of the trimer 248 kDa); also called TSP1
[6]
  stoichiometry N: 3
[7]
  Kd: 60 nM
  koff: 0.0001 s⁻¹
[7]; one trimer bound per hexamer
  stoichiometry N (TSP1:TSP4-N335 (chains)): 0.5
[7]; two trimers bound per hexamer
  stoichiometry N (TSP1:TSP4-N335 (chains)): 1
[8]
  Kd: 80 nM

B2: TSP1 head, residues 14-166 (D1-D2 domains and the alpha-helical neck, without the 13 N-terminal amino acids) (domain or fragment, bacteriophage CBA120, UniProt G3M189 14-166, looked up)
chain: GILTNKQAVARHFGVKQSEVVYFSVGVDLGGYKVIYDKETQRAYSLPVGIASGTTAVSLSTAAVLVHSAGSVDLGSLAVSREEYVTLPGSFDSGSTLNVKNELLTYTDGKYRWDGILPKTVAPGSTPASTGGVGLGAWISVGDASLRTQLANG
notes: TSP1 of phage CBA120, D1-D2 head and neck, residues 14-166; Trimerisation was promoted by Zn2+; also called TSP1_(14-166); TSP1-N_(14-166)
[9]
  stoichiometry N: 3
[10]; one trimer bound per hexamer
  stoichiometry N (TSP1 (14-166):TSP4-N335 (chains)): 0.5
[10]; two trimers bound per hexamer
  stoichiometry N (TSP1 (14-166):TSP4-N335 (chains)): 1

B3: Tailspike protein 2 of bacteriophage CBA120 (natural protein, UniProt G3M190 1-921, looked up)
chain: MTRNVEELFGGVITAPHQIPFTYKSNVGGETFLSLPFYPVTGVVTINGGMQVPLDNFEIEGNTLNLGRALSKGDVVYCLFDKILSPEDTAKGIRIYKFQAVGGETEFTPDFTSYGVQSLYIGGEYKTPEIEYSYDSTTGKVSLQTALSAGVWVVAEMSVKQPNISPAFDRSIQEIARSANVKDSEVIVSTDTISLLDGKKVVYDIATQTSYGLPTIPDGSVISSVSAGKLNYNPGDVQVDLLPLEDSFINVINTLGRNDGAKYIGECHSVADLRNTEPTMDGQRIILKQHTAGTLLGGGVFRALIDGTGKTDNNGTVIKTVGGAAWLRVNADRVNPFMFGALGGSNDDTIPVQSCVDSGKATQLTDAHYVSNIQLKYNTSSIYGSGLHYSRLHQLPSATGNCITIKDTCSLIVLDAFGVYGTGAQQGTSFTAGTTGIYVETPSGLSADYPFHTTADPRRDLCISKVHIAGFDEYGLNIDSGNFSVTTDSLLVNHINQVGVRCATTDWTWTNIQVNTCGKQCLVLDGCGNGRIIGGKFIWANWQPYGTVGQFPGITINNSQNMVINGIEVQDCGGNGIEISESYSISMNGLNTNRNGINANNTFYNIVFNKSDAVINGFVGLNYAANSGSGANSSAGNFQFLSNDCSVTINGVVETGYMGINFIGDNNIINPTNSDLSINGLVNYSKTGLQTMNETPTFDGVSTTPVYVSVPSSVGQVNGLRLSQANKDKLLYSRTAGPEGITMAAVIVPTISGAEVFNFMAIGSGFSDTSNSLHLQLVIDASGKQTIALLLGGDGTTQILSGDLPNDLKLQSGVPYHIAIGAKPGYFWWSILNIQTGKRIRRSFRGAYLAVPFNSIFGLTSSLTFFSDSNAGGDACSGVGAKVYVGMFSSENDYVASRYYNLINPVDPTKLISYRILDSSI
notes: Homotrimer by SV (MWcalc of the trimer 297 kDa); also called TSP2
[6]
  stoichiometry N: 3
[7]
  Kd: 110 nM
  koff: 0.00025 s⁻¹
[11]; one trimer bound per hexamer
  stoichiometry N (TSP2:TSP4-N490 (chains)): 0.5
[11]; two trimers bound per hexamer
  stoichiometry N (TSP2:TSP4-N490 (chains)): 1
[12]; one trimer bound per hexamer
  stoichiometry N (TSP2:TSP4-N181 (chains)): 0.5
[12]; two trimers bound per hexamer
  stoichiometry N (TSP2:TSP4-N181 (chains)): 1
[8]
  Kd: 75 nM
